{"source": "paper PMC11969024", "about": "(2025)", "parents": {"B1": {"name": "peptide HD2 (from tick evasin EVA4) / CCL22 (biotinylated, synthetic) (parent complex)", "chain 1": "EEDDYTAYAPLTCYFT", "chain 2": "GPYGANMEDSVCCRDYVRYRLPLRVVKHFYWTSDSCPRPGVVLLTFRDKEICADPRVPWVKMILNKLSQ"}}}
{"variants_of": "B1"}
{"variant": "chain 1 EEYDYTAYAPLTCYFT", "note": "[chain 1 D3Y]", "enrichment": "-3.98 log2 (difference from the parental peptide)"}
{"variant": "chain 1 EEFDYTAYAPLTCYFT", "note": "[chain 1 D3F]", "enrichment": "-5 log2 (difference from the parental peptide)"}
{"variant": "chain 1 EEKDYTAYAPLTCYFT", "note": "[chain 1 D3K]", "enrichment": "-5.36 log2 (difference from the parental peptide)"}
{"variant": "chain 1 EEIDYTAYAPLTCYFT", "note": "[chain 1 D3I]", "enrichment": "-5.15 log2 (difference from the parental peptide)"}
{"variant": "chain 1 WEDDYTAYAPLTCYFT", "note": "[chain 1 E1W]", "enrichment": "-2.09 log2 (difference from the parental peptide)"}
{"variant": "chain 1 NEDDYTAYAPLTCYFT", "note": "[chain 1 E1N]", "enrichment": "-1.54 log2 (difference from the parental peptide)"}
{"variant": "chain 1 LEDDYTAYAPLTCYFT", "note": "[chain 1 E1L]", "enrichment": "-1.9 log2 (difference from the parental peptide)"}
{"variant": "chain 1 PEDDYTAYAPLTCYFT", "note": "[chain 1 E1P]", "enrichment": "-2.84 log2 (difference from the parental peptide)"}
{"variant": "chain 1 KEDDYTAYAPLTCYFT", "note": "[chain 1 E1K]", "enrichment": "-4.48 log2 (difference from the parental peptide)"}
{"variant": "chain 1 EEDDYTAYAPKTCYFT", "note": "[chain 1 L11K]", "enrichment": "0.195 log2 (difference from the parental peptide)"}
{"variant": "chain 1 EEDDYTAYAPETCYFT", "note": "[chain 1 L11E]", "enrichment": "0.55 log2 (difference from the parental peptide)"}
{"variant": "chain 1 EEDDYTAYAPMTCYFT", "note": "[chain 1 L11M]", "enrichment": "2.52 log2 (difference from the parental peptide)"}
{"variant": "chain 1 EEDDYTAYAPLTCYAT", "note": "[chain 1 F15A]", "enrichment": "1.19 log2 (difference from the parental peptide)"}
{"variant": "chain 1 EEDDYTAYAPLTCYMT", "note": "[chain 1 F15M]", "enrichment": "0.54 log2 (difference from the parental peptide)"}
{"variant": "chain 1 EEDDYTAYAPLTCYVT", "note": "[chain 1 F15V]", "enrichment": "0.452 log2 (difference from the parental peptide)"}
{"variant": "chain 1 EEDDYTAYAPLTCYPT", "note": "[chain 1 F15P]", "enrichment": "-1.52 log2 (difference from the parental peptide)"}
{"variant": "chain 1 EEDDYTAYAPLTCYCT", "note": "[chain 1 F15C]", "enrichment": "-4.84 log2 (difference from the parental peptide)"}
{"variant": "chain 1 EEDDYTAYAPLQCYFT", "note": "[chain 1 T12Q]", "enrichment": "0.207 log2 (difference from the parental peptide)"}
{"variant": "chain 1 EEDDYTAYAPLECYFT", "note": "[chain 1 T12E]", "enrichment": "-7.95 log2 (difference from the parental peptide)"}
{"variant": "chain 1 EEDDYTAYAPLVCYFT", "note": "[chain 1 T12V]", "enrichment": "-0.299 log2 (difference from the parental peptide)"}
{"variant": "chain 1 EEDDYTAYAPLTCIFT", "note": "[chain 1 Y14I]", "enrichment": "-0.881 log2 (difference from the parental peptide)"}
{"variant": "chain 1 EEDDYTAYAPLTCQFT", "note": "[chain 1 Y14Q]", "enrichment": "-0.26 log2 (difference from the parental peptide)"}
{"variant": "chain 1 EEDDYTAYAPLTCEFT", "note": "[chain 1 Y14E]", "enrichment": "-6.44 log2 (difference from the parental peptide)"}
{"variant": "chain 1 EEDDYTAWAPLTCYFT", "note": "[chain 1 Y8W]", "enrichment": "-2.54 log2 (difference from the parental peptide)"}
{"variant": "chain 1 EEDDYTAYAPLTWYFT", "note": "[chain 1 C13W]", "enrichment": "-3.31 log2 (difference from the parental peptide)"}
{"variant": "chain 1 EEDDYTAYAPLTLYFT", "note": "[chain 1 C13L]", "enrichment": "-6.36 log2 (difference from the parental peptide)"}
{"variant": "chain 1 EDDDYTAYAPLTCYFT", "note": "[chain 1 E2D]", "enrichment": "1.62 log2 (difference from the parental peptide)"}
{"variant": "chain 1 EMDDYTAYAPLTCYFT", "note": "[chain 1 E2M]", "enrichment": "-2.95 log2 (difference from the parental peptide)"}
{"variant": "chain 1 EEDDYDAYAPLTCYFT", "note": "[chain 1 T6D]", "enrichment": "3.79 log2 (difference from the parental peptide)"}
{"variant": "chain 1 EEDDYEAYAPLTCYFT", "note": "[chain 1 T6E]", "enrichment": "2.68 log2 (difference from the parental peptide)"}
{"variant": "chain 1 EEDDYNAYAPLTCYFT", "note": "[chain 1 T6N]", "enrichment": "1.76 log2 (difference from the parental peptide)"}
{"variant": "chain 1 EEDDYMAYAPLTCYFT", "note": "[chain 1 T6M]", "enrichment": "-1.14 log2 (difference from the parental peptide)"}
{"variant": "chain 1 EEDDYTLYAPLTCYFT", "note": "[chain 1 A7L]", "enrichment": "-0.735 log2 (difference from the parental peptide)"}
{"variant": "chain 1 EEDDYTMYAPLTCYFT", "note": "[chain 1 A7M]", "enrichment": "1.59 log2 (difference from the parental peptide)"}
{"variant": "chain 1 EEDDYTVYAPLTCYFT", "note": "[chain 1 A7V]", "enrichment": "-3.51 log2 (difference from the parental peptide)"}
{"variant": "chain 1 EEDDYTQYAPLTCYFT", "note": "[chain 1 A7Q]", "enrichment": "2.25 log2 (difference from the parental peptide)"}
{"variant": "chain 1 EEDDYTYYAPLTCYFT", "note": "[chain 1 A7Y]", "enrichment": "-1.54 log2 (difference from the parental peptide)"}
{"variant": "chain 1 EEDDYTDYAPLTCYFT", "note": "[chain 1 A7D]", "enrichment": "1.26 log2 (difference from the parental peptide)"}
{"variant": "chain 1 EEDDYTAYALLTCYFT", "note": "[chain 1 P10L]", "enrichment": "-7.92 log2 (difference from the parental peptide)"}
{"variant": "chain 1 EEDDETAYAPLTCYFT", "note": "[chain 1 Y5E]", "enrichment": "-3.48 log2 (difference from the parental peptide)"}
{"variant": "chain 1 EEDDCTAYAPLTCYFT", "note": "[chain 1 Y5C]", "enrichment": "-5.08 log2 (difference from the parental peptide)"}
{"variant": "chain 1 EEDDVTAYAPLTCYFT", "note": "[chain 1 Y5V]", "enrichment": "-5.81 log2 (difference from the parental peptide)"}
{"variant": "chain 1 EEDDFTAYAPLTCYFT", "note": "[chain 1 Y5F]", "enrichment": "-1.41 log2 (difference from the parental peptide)"}
{"variant": "chain 1 EEDDNTAYAPLTCYFT", "note": "[chain 1 Y5N]", "enrichment": "-6.71 log2 (difference from the parental peptide)"}
{"variant": "chain 1 EEDDYTAYMPLTCYFT", "note": "[chain 1 A9M]", "enrichment": "-5.79 log2 (difference from the parental peptide)"}
{"variant": "chain 1 EEDDYTAYTPLTCYFT", "note": "[chain 1 A9T]", "enrichment": "-3.93 log2 (difference from the parental peptide)"}
{"variant": "chain 1 EEDDYTAYHPLTCYFT", "note": "[chain 1 A9H]", "enrichment": "-6.63 log2 (difference from the parental peptide)"}
{"variant": "chain 1 EEDEYTAYAPLTCYFT", "note": "[chain 1 D4E]", "enrichment": "-1.08 log2 (difference from the parental peptide)"}
{"variant": "chain 1 EEDVYTAYAPLTCYFT", "note": "[chain 1 D4V]", "enrichment": "-8.27 log2 (difference from the parental peptide)"}
{"variant": "chain 1 EEDDYTAYAPLTCYFH", "note": "[chain 1 T16H]", "enrichment": "0.765 log2 (difference from the parental peptide)"}
{"variant": "chain 1 EEDDYTAYAPLTCYFA", "note": "[chain 1 T16A]", "enrichment": "1.77 log2 (difference from the parental peptide)"}
{"variant": "chain 1 EEDDYTAYAPLTCYFM", "note": "[chain 1 T16M]", "enrichment": "0.731 log2 (difference from the parental peptide)"}
{"variant": "chain 1 EEDDYTAYAPLTCYFV", "note": "[chain 1 T16V]", "enrichment": "-0.0944 log2 (difference from the parental peptide)"}
{"variant": "chain 1 EEDDYTAYAPLTCYFS", "note": "[chain 1 T16S]", "enrichment": "1.36 log2 (difference from the parental peptide)"}
{"variant": "chain 1 EEDDYTAYAPLTCYFE", "note": "[chain 1 T16E]", "enrichment": "0.53 log2 (difference from the parental peptide)"}
{"variant": "chain 1 EEDDYTAYAPLTCYFY", "note": "[chain 1 T16Y]", "enrichment": "-0.842 log2 (difference from the parental peptide)"}
